Experimental data reported in patent US20150111306, “HEMOGLOBIN A1c-SPECIFIC APTAMER, HEMOGLOBIN-SPECIFIC APTAMER, AND APPLICATIONS THEREOF” (National Tsing Hua University, published 2015).

Target: Hemoglobin (Hb) (UniProt P69905;P68871 P69905:2-142,P68871:2-147)
Assay: pulldown; biotin-aptamer streptavidin bead sandwich chemiluminescence in blood, R2=0.9821
Details: tags: conjugated to magnetic beads; also captured from blood; chain copies: alpha2beta2 tetramer (inferred); label: biotin (blood detection assay); stem-loop (MFOLD, -9.67 kcal/mol)
From the text: The detection of this embodiment is also a two-antibody assay; therefore, please refer to Example 2 for the detection process. In this embodiment, the nucleic acid sequence of SEQ ID NO: 7 with lower free energy was used as the aptamer. The aptamer was labeled by biotin and was used to replace the anti-Hb antibody in the two-antibody assay. The surface of the magnetic bead used was also conjugated with streptavidin. Upon mixing with blood, the hemoglobin-specific aptamer would bind to hemoglobin in blood. After a magnetic field was applied and the unbound substances were washed away, an acridinium ester-labeled anti-Hb antibody was added. The acridinium ester-labeled anti-Hb antibody produces chemiluminescense, thus, can be detected using luminometer.

Hemoglobin (Hb), sequence (P69905 2-142, chain 1 of 2): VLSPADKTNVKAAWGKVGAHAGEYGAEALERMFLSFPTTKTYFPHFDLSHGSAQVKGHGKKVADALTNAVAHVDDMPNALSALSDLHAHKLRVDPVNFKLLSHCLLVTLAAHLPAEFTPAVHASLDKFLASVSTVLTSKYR
Hemoglobin (Hb), sequence (P68871 2-147, chain 2 of 2): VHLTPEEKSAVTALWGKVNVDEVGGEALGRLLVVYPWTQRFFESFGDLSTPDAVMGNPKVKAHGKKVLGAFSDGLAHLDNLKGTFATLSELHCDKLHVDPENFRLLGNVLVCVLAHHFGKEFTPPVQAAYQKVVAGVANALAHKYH

B1: Hb-specific aptamer SEQ ID NO: 7 (ssDNA)
DNA: GGCAGGAAGACAAACACCAGGTGAGGGAGACGACGCGAGTGTTAGATGGTAGCTGTTGGTCTGTGGTGCTGT
B1: binds.
